Reference: publication PMC4946879

How the values were obtained:
[1] = molecular target: HIV-1 Gag CTD-SP1 (residues 281–377 of HIV-1 NL4-3 Gag, P373T) (HIV-1 NL4-3); assay: crystal structure; plate crystals of stacked flat hexagonal lattices; 0.1 M Bis-Tris propane, pH 7-8, 0.8-1.0 M LiSO4; sitting drops, 1:2 protein:precipitant; 3.27 Å
[2] = molecular target: HIV-1 Gag CTD-SP1 (residues 281–377 of HIV-1 NL4-3 Gag, P373T) (HIV-1 NL4-3); assay: crystal structure; other crystal hits from screens with commercial and in-house precipitants; mature-like dimer form of the CTD with disordered SP1 tails; not deposited

## HIV-1 Gag CTD-SP1 (residues 281–377 of HIV-1 NL4-3 Gag, P373T) (domain or fragment)
[1]
  stoichiometry N: 6
[2]
  stoichiometry N: 2
